From patent US20250388672A1 (Ablynx, published 2025)
Where a chain is given by its changes, count along the chain named.

Tests used:
[1] = biological target: T1, human CD20 (human, UniProt P11836 1-297); assay: flow cytometry on Raji cells, MCF (Mean PE)
T1 construct: whole, on cells; On Ramos or Raji B cells (natural) or on transfected CHO-K1 cells, as said under assay or readout; also called CD20 on Ramos cells; CD20 on Raji cells
T1 sequence (looked up): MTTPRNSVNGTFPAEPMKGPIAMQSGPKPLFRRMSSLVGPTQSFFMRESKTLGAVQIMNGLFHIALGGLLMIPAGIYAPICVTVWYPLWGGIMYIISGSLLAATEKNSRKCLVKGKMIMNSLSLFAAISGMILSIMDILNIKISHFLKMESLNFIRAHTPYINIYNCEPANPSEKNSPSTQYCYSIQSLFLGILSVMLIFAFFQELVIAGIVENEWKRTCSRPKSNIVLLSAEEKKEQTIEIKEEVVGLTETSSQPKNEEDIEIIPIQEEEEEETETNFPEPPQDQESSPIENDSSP

[2] = biological target: T1, human CD20; assay: flow cytometry on Ramos cells, MCF (Mean PE)
[3] = biological target: T2, human TCR/CD3 complex on purified primary human T cells (human); assay: flow cytometry on purified primary human T cells
T2 construct: Natural complex on T cells isolated from buffy coats of healthy donors; also called hu T cells; purified primary T cells
T2 sequence (delta, as listed by the source limits assumed, chain 1 of 4): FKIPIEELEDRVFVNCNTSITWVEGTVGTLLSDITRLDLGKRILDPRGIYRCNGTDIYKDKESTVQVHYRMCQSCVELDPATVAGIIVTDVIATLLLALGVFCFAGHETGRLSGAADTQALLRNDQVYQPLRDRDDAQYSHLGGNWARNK
T2 sequence (gamma, as listed by the source limits assumed, chain 2 of 4): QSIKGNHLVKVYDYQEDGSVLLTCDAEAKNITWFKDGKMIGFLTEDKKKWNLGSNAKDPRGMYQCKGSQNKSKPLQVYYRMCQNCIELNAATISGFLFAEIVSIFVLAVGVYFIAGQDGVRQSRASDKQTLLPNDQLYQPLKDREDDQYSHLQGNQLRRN
T2 sequence (epsilon, as listed by the source limits assumed, chain 3 of 4): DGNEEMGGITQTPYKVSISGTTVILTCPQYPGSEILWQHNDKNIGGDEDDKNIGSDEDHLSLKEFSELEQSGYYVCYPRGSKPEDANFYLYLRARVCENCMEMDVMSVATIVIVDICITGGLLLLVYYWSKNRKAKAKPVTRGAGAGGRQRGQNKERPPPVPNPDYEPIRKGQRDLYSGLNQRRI
T2 sequence (zeta, as listed by the source limits assumed, chain 4 of 4): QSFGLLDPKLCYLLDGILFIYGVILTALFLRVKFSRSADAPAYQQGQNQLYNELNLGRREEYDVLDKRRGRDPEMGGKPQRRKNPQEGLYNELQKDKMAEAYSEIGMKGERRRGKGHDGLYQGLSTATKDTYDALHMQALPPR

[4] = biological target: T3, human CD3 expressed on HEK293H cells (human, UniProt P20963 22-164); assay: flow cytometry on HEK293H cells expressing human CD3
T3 construct: also called HEK293H CD3; HEK293H human CD3
T3 sequence (chain, as listed by the source limits assumed, chain 1 of 4): as the sequence (delta, as listed by the source limits assumed, chain 1 of 4) above
T3 sequence (chain, as listed by the source limits assumed, chain 2 of 4): as the sequence (gamma, as listed by the source limits assumed, chain 2 of 4) above
T3 sequence (chain, as listed by the source limits assumed, chain 3 of 4): as the sequence (epsilon, as listed by the source limits assumed, chain 3 of 4) above
T3 sequence (P20963 22-164 limits assumed, chain 4 of 4): as the sequence (zeta, as listed by the source limits assumed, chain 4 of 4) above
From the text: The parental HEK293H cell line was included as TCR/CD3 negative cell line.

B1: 20CD019C07 (VHH)
VHH: EVQLVESGGGLVQPGGSLRLSCTFSGGTFSSYTMGWFRQAPGKEREFVAEVRWGGVTTYSNSLKDRFSISEDSVKNAVYLQMNSLKPEDTAVYYCAAVRQMYMTVVPDYWGQGTLVTVSS
notes: also called the anti-CD20 Nanobody; human CD20 targeting Nanobody
B1 was tested. Which “EC50 (read off the curve)” value [1] did it give?
Its value is ~20 nM.

What about the “EC50 (read off the curve)” value [2] of the same binder?
Its value is ~9 nM.

B2: T0170117G03 (VHH)
VHH: EVQLVESGGGPVQAGGSLRLSCAASGRTYRGYSMGWFRQAPGKEREFVAAIVWSGGNTYYEDSVKGRFTISRDNAKNTMYLQMTSLKPEDSATYYCAAKIRPYIFKIAGQYDYWGQGTQVTVSS
notes: Monovalent anti-CD3 Nanobody, expressed in E. coli TG1 as triple Flag, His6-tagged protein; also called T0170PMP117G03; cluster A representative; not shown: C-terminal triple FLAG and His6 tag
For B2, which EC50 [3] is on record?
Its EC50 is 22 nM.

B3: T0170075G11 (VHH)
VHH: B2 VHH with G16D, A40V, S54T, G55D, N74I, A75T, Q82H
notes: also called T0170PMP075G11; cluster A; not shown: C-terminal triple FLAG and His6 tag
How did the EC50 [4] turn out when B3 was run?
The EC50 was 84 nM.
